From publication PMC12771579, “Distinct classes of gut bacterial molybdenum-dependent enzymes produce urolithins” (Proceedings of the National Academy of Sciences of the …, 2025) come the findings set out here.

A word on the Km: it is the substrate concentration at which the rate is half of its maximum. A word on the kcat: it is the maximal rate divided by the concentration of active sites.

Holding throughout (test): continuous absorbance assay, methyl viologen, initial rates
Holding throughout (settings): 200 µM methyl viologen, 100 µM sodium dithionite, 20 mM MOPS, 300 mM NaCl, pH 7.0, 30 °C, anaerobic

For one series, the system named is T1, Eadh3.
T1 construct: recombinant, expressed in G. urolithinfaciens, purified; bis-MGD enzyme without signal peptide; tag only in SI
The format is biochemical, Ellagibacter isourolithinifaciens. The text has this:
continuous absorbance assay, methyl viologen, initial rates on Eadh3 | Eadh3 converted urolithin C to isourolithin A via C8-OH dehydroxylation | urolithin M6 was metabolized more readily by Eadh2 than by Eadh3

The test system of series [1] is T2, O=c1oc2c(O)c(O)ccc2c2c(O)c(O)c(O)cc12.
T2 construct: recombinant, cumate-inducible expression in G. urolithinfaciens (called native host), purified anaerobically; bis-MGD enzyme without signal peptide; tag only in SI
The class given is biochemical, Gordonibacter urolithinfaciens. The text has this: continuous absorbance assay, methyl viologen, initial rates on Eadh1 | Eadh1 (C4-OH dehydroxylation of urolithin M5 to urolithin M6) | can accept urolithin D as a substrate to produce urolithin C

Series [2] deals with T3, O=c1oc2cc(O)ccc2c2c(O)c(O)c(O)cc12.
T3 construct: recombinant, cumate-inducible expression in G. urolithinfaciens (called native host), purified anaerobically; bis-MGD enzyme without signal peptide; tag only in SI
The class given is biochemical, Gordonibacter urolithinfaciens.

In series [3] the test system is T2, O=c1oc2c(O)c(O)ccc2c2c(O)c(O)c(O)cc12. The format is biochemical, Gordonibacter urolithinfaciens. This is another data set of the same source.

Turning to `O=c1oc2cc(O)ccc2c2cc(O)c(O)cc12` [urolithin C], in the series on Eadh3, the Km came to 19.9 ± 2.1 µM.
The same measure, in the same setting: the value for `O=c1oc2cc(O)ccc2c2c(O)c(O)c(O)cc12` [urolithin M6] was 78.4 ± 10.6 µM.
For Eadh1 (Gordonibacter sp. 28C), in series [1], the Km was 11.8 ± 2.5 µM and the kcat is 8.60 ± 0.49 s⁻¹.
Eadh2 (Gordonibacter sp. 28C): in series [2], the Michaelis constant (Km) is on record as 13.8 ± 2.9 µM and the turnover number (kcat) came out at 0.65 ± 0.03 s⁻¹. In series [3], the Km came to 34.1 ± 6.4 µM and the kcat turned out to be 0.42 ± 0.02 s⁻¹.
